Assay results from US11840574B2, “Anti-DR5 antibody and use thereof” (DONG-A ST CO., LTD., priority 2017, dated 2023).
Positions count from the first letter of the chain named.

B1: DA24: humanized or deimmunized variant of parental clone D0; CDRs SEQ ID NO 1, 2, 7 / 4, 10, 13 (antibody, V domains shown)
VH: AVTLDESGGGLQTPGGGLSLVCKGSGFTFSSFNMLWVRQAPGKGLEWVAGIGKSDRYTGYGSAVKGRATISRDDGQSTVRLQLNNLRAEDTGTYYCVKDAGSGCGSGGWTGACIDTWGHGTEVIVSS
VL: LTQPSSVSANLGGTVEITCSGGDSYAGSYYYGWYQQKAPGSAPVTVIYNNNNRPSNIPSRFSGSTSGSTATLTITGVQAEDEATYYCGSRDSSYVGIFGAGTTLTVL
B2: DA28: humanized or deimmunized variant of parental clone D0; CDRs SEQ ID NO 1, 2, 7 / 4, 10, 13 (antibody, V domains shown)
VH: B1 VH with V79A
VL: B1 VL with T84V, Y86F
B3: DA27: humanized or deimmunized variant of parental clone D0; CDRs SEQ ID NO 1, 2, 7 / 4, 10, 13 (antibody, V domains shown)
VH: B1 VH
VL: B1 VL with Y86F
B4: DA25: humanized or deimmunized variant of parental clone D0; CDRs SEQ ID NO 1, 2, 7 / 4, 10, 13 (antibody, V domains shown)
VH: B1 VH with R80Y, L83M, N85S
VL: B1 VL with T84V, Y86F
B5: DA26: humanized or deimmunized variant of parental clone D0; CDRs SEQ ID NO 1, 2, 7 / 4, 10, 13 (antibody, V domains shown)
VH: B1 VH with R80Y, L83M, N85S
VL: B1 VL
B6: DA5: humanized or deimmunized variant of parental clone D0; CDRs SEQ ID NO 1, 2, 7 / 4, 10, 13 (antibody, V domains shown)
VH: EVQLVESGGGLVQPGGSLRLSCAASGFTFSSFNMLWVRQAPGKGLEWVAGIGKSDRYTGYGSAVKGRFTISRDDSKSTAYLQMNSLRAEDTAVYYCVRDAGSGCGSGGWTGACIDTWGQGTLVTVSS
VL: DIQMTQSPSSLSASVGDRVTITCSGGDSYAGSYYYGWYQQKPGKAPKTLIYNNNNRPSGVPSRFSGSTSGTDFTLTISSLQPEDFATYYCGSRDSSYVGIFGQGTKVEIK
B7: DA12: humanized or deimmunized variant of parental clone D0; CDRs SEQ ID NO 1, 2, 7 / 4, 11, 13 (antibody, V domains shown)
VH: B6 VH with D74T, S77N, V97S
VL: B6 VL with R56L, P57M, S58P, T68R
B8: DA18: humanized or deimmunized variant of parental clone D0; CDRs SEQ ID NO 1, 2, 7 / 4, 10, 15 (antibody, V domains shown)
VH: B6 VH with A79V
VL: B6 VL with T68R, S96D, Y97G, V98G, I100R
B9: DA7: humanized or deimmunized variant of parental clone D0; CDRs SEQ ID NO 1, 2, 7 / 4, 10, 13 (antibody, V domains shown)
VH: B6 VH with A79V, V97S
VL: B6 VL
B10: DA14: humanized or deimmunized variant of parental clone D0; CDRs SEQ ID NO 1, 2, 7 / 4, 12, 13 (antibody, V domains shown)
VH: B6 VH with D74T, S77N, V97S
VL: B6 VL with R56K, P57A, S58K, T68R
B11: DA6: humanized or deimmunized variant of parental clone D0; CDRs SEQ ID NO 1, 2, 7 / 4, 10, 13 (antibody, V domains shown)
VH: B6 VH with A79V, V97A
VL: B6 VL
B12: DA10: humanized or deimmunized variant of parental clone D0; CDRs SEQ ID NO 1, 2, 7 / 4, 10, 13 (antibody, V domains shown)
VH: B6 VH with D74T, S77N, V97S
VL: B6 VL with T68R
B13: DA9: humanized or deimmunized variant of parental clone D0; CDRs SEQ ID NO 1, 2, 7 / 4, 10, 13 (antibody, V domains shown)
VH: B6 VH with A79L
VL: B6 VL with T68R
B14: DA16: humanized or deimmunized variant of parental clone D0; CDRs SEQ ID NO 1, 2, 7 / 4, 10, 16 (antibody, V domains shown)
VH: B6 VH with D74T, S77N, V97S
VL: B6 VL with T68R, Y97G, V98A, I100G
B15: DA15: humanized or deimmunized variant of parental clone D0; CDRs SEQ ID NO 1, 2, 7 / 4, 10, 15 (antibody, V domains shown)
VH: B6 VH with D74T, S77N, V97S
VL: B6 VL with T68R, S96D, Y97G, V98G, I100R
B16: DA8: humanized or deimmunized variant of parental clone D0; CDRs SEQ ID NO 1, 2, 7 / 4, 10, 13 (antibody, V domains shown)
VH: B6 VH with A79V
VL: B6 VL with T68G
B17: DA13: humanized or deimmunized variant of parental clone D0; CDRs SEQ ID NO 1, 2, 7 / 4, 10, 14 (antibody, V domains shown)
VH: B6 VH with D74T, S77N, V97S
VL: B6 VL with T68R, S96A, Y97G, V98M, I100A
B18: DA17: humanized or deimmunized variant of parental clone D0; CDRs SEQ ID NO 1, 2, 7 / 4, 12, 13 (antibody, V domains shown)
VH: B6 VH with A79V
VL: B6 VL with R56K, P57A, S58K, T68R

The molecules below were run against Human DR5 (Homo sapiens, UniProt O14763) (assay: Binding affinity of antibody to human DR5 (BIAcore, CM5 chip)). Settings: association rate, Human DR5, 1:1 Langmuir binding model.
Protocol: In order to measure affinity, human DR5 was coupled to carboxylated dextran biosensor chips (CM5, GE) according to the manufacturer's instruction. Association and dissociation rates were assessed by injecting IgG proteins that were 2-fold serially diluted to 5 nM, 2.5 nM, 1.25 nM, 0.625 nM, 0.313 nM, and 0.156 nM.
Association and dissociation rates were depicted in association and dissociation sensorgrams and calculated using a simple 1:1 Langmuir binding model (BIAcore X100 Evaluation Software, ver. 2.0). The equilibrium dissociation constants (KD), which is the ratio of dissociation constant (Kd) to association constant (Ka), were confirmed to be in the sub-nanomolar range. Measurements of the binding of antibody D0 and DA1 to DA35 of the present disclosure to DR5 are given in Table 11 below (antibody names are given as the names of the clones from which the antibodies were derived). A representative sensorgram for D0 is depicted in FIG. 1.

Row | Ka(1/Ms) | Ka [M⁻¹ s⁻¹] | Molecule
1 | 1.20 × 10^06 1/Ms |  | B1
2 | 1.16 × 10^06 1/Ms |  | B2
3 | 1.17 × 10^06 1/Ms |  | B3
4 | 1.05 × 10^06 1/Ms |  | B4
5 | 1.09 × 10^06 1/Ms |  | B5
6 |  | 1.2e+06 | B6
7 | 2.37 × 10^06 1/Ms |  | B7
8 | 1.33 × 10^06 1/Ms |  | B8
9 |  | 1.4e+06 | B9
10 | 4.27 × 10^06 1/Ms |  | B10
11 |  | 7.8e+06 | B11
12 |  | 2.3e+06 | B12
13 |  | 5.6e+06 | B13
14 | 2.11 × 10^06 1/Ms |  | B14
15 | 2.56 × 10^06 1/Ms |  | B15
16 |  | 1.6e+06 | B16
17 | 2.62 × 10^06 1/Ms |  | B17
18 | 2.54 × 10^06 1/Ms |  | B18

Same assay, conditions: equilibrium dissociation constant, Human DR5

Row | Kd [pM] | Molecule
19 | 1.02 | B1
20 | 3.89 | B2
21 | 1.92 | B3
22 | 1.62 | B4
23 | 1.01 | B5
24 | 12.7 | B7
25 | 27.7 | B8
26 | 1.9 | B9
27 | 23.5 | B10
28 | 7 | B12
29 | 26.1 | B14
30 | 1.09 | B15
31 | 11.2 | B17
32 | 23.5 | B18
